Assay results published in the supplement of paper PMC9170038.

Tested on: MS2 coat protein
Assay: apparent KD of MS2 coat protein; designed switch direction (-1 OFF switch, 1 ON switch): -1; higher = weaker reporter binding
Procedure, shortened: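 Normalised cluster fluorescence was curve-fitted, and each design's median over clusters is its apparent KD. Before this, SNAP-549-labelled MS2 coat protein was titrated from 0.7 or 1.5 nM, doubling to 3 µM, over RNA switches transcribed on Illumina chips by stalled E. coli RNA polymerase. Titrations had no input, 200 uM small-molecule ligand, or an oligonucleotide input, and steps lasted 0.8–1.5 h (lowest) to 10–20 min (highest).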

[1] = Eterna round: R95, input ligand: microRNA oligo, concentration not stated
[2] = Eterna round: R95, input ligand: FMN 200 uM
[3] = Eterna round: R95, input ligand: none
[4] = input ligand: microRNA oligo, concentration not stated

Sequence	apparent KD of MS2 coat protein (input ligand: FMN 200 uM) [nM]	apparent KD of MS2 coat protein (input ligand: none) [nM]	also measured
AGUGAACAUGAGGAUCACCCAUGUUAGGAUAUGUAUAAUCGACGAGCCUUUUCGUCGGGCAGAAGGGAUGGUGA [Eternabot (L2) Solution 95] (Eterna round: R97, puzzle: Exclusion 1)	44.7	41.6	
AAAUGAUGUCAGGAUAUUGACGUUAAAAGAACGCAAGAAGGGACAACAUGAGGAUCACCCAUGUGGUCCUAUAA [Bira] (puzzle: Exclusion 6)			apparent KD of MS2 coat protein [1]: 13 nM
UUAUAAAGUGUGAGGAUAUGCUGGUCGAUAGAUCAGCAGAAGGCACAUGAGGAUCACCCAUGUAAUAUAUUUUU [Mat - Exclusion 4 - JL Mod - D44] (puzzle: Brourd's mod of Exclusion 4)			apparent KD of MS2 coat protein [1]: 45.1 nM
CCGCAAAUGAAGGAUAUCGUAUCGGAUACGAUACGAGAAGGUCGAACAUGAGGAUCACCCAUGUGUCCUAGCGG [Fiskers Ex 6 - 41] (puzzle: Exclusion 6)			apparent KD of MS2 coat protein [2]: 19.4 nM; apparent KD of MS2 coat protein [1]: 11.2 nM; apparent KD of MS2 coat protein [3]: 12.1 nM
GUACUGACAGGAUAUACAUGAGGAUCACCCAUGUCCUUAAGCUGACAAAAGUCAGCAAGUAGAAGGGUCUGUAC [Omei Ex3 Model Bachelor's Dilema v1] (Eterna round: R97, puzzle: Exclusion 3)	498	79.4	
AGCUGUGGCCGAGGAUAUUGCGAACCAUGGAAAACCAUGGAAACUCUACAUGAGGAUCACCCAUGUAAGAAGGCGGUCUCAGCA [Eli eng2 - 025] (Eterna round: R96, puzzle: Exclusion NG 2)	18.7	15.8	apparent KD of MS2 coat protein [4]: 10.7 nM
GACUUCUCUGAGGAUAUUGCAUCAUACGAUCUAUAAGAAGGCAGAACAUGAGGAUCACCCAUGUGGGUUUCUAG [Bingo-Bango-28] (Eterna round: R97, puzzle: Exclusion 6)	70.2	38.3	
GAGUACUGAGGAUAUACAUGAGGAUCACCCAUGUGUUCCAACUAGGAAUCUAGAAUAUGUAGAAGGCAGUGCUG [salish99_ex3_r4_702] (Eterna round: R97, puzzle: Exclusion 3)	71.3	123	
GAUUAACAUGAGGAUCACCCAUGUGAGGAUAUGAACUUGCCCACUUACCCUUUAGAGUUUAGAAGGCGCAUUCU [1986#33] (Eterna round: R97, puzzle: Exclusion 1)	22.4	28.2	
CGGGUCUGAGGAUAUCCACCCUCAUACAUGAGGAUCACCCAUGUUCACCCUUGGGUUCCCGGAGAAGGCAGUUUUC [Megrez-3.6] (Eterna round: R97, puzzle: Exclusion 5)	275	208	
UAUGUGUCAGGAUAUUAGUAGUAAAUGAAUAAAAUUAUUACUGAGAAGGGACAUGAGGAUCACCCAUGUGCCUC [Mat - Exclusion 4 - Eli Mod - D27] (Eterna round: R97, puzzle: Exclusion 4)	345	35.2	
AGCUUUUUGUUCGUCUUACACAUGAGGAUCACCCAUGUGUCGGACCGCAUCGAUAGAUGUAGACCGAGAAGCAUGGG [Omdei Mir OFFv1 C9] (Eterna round: R97, puzzle: Sensor, turn-off variant 1)	95.6	98.9	
UAUUCGCGAGGAUAUGCAUUCGAGUCCAUUACGUGUCUGGGACUUGAGGAUCACCCAAGUAGAAGGCGUCUCAU [salish99_ex2_r4_643] (Eterna round: R97, puzzle: Exclusion 2)	99.7	145	
UGAUGACAUGAGGAUCACCCAUGUCAGGAUAUGCUUCGGCUUCGGAAAUGAAGUUGAAGUAGAAGGGACUGUCG [-27.1, -24.1 kcal, A 28% sequence 3 bis] (Eterna round: R97, puzzle: Exclusion 1)	37.7	27.8	
AGUAGGUCUACCUUGGUGGAUCUGCAUUUAAGCAGGUGUACAUGAGGAUCACCCAUGUCCUCAUUUGCUCGUCUUAU [JL turnoff v2 99.30] (puzzle: Sensor v3, turn-off variant 2)			apparent KD of MS2 coat protein [2]: 453 nM; apparent KD of MS2 coat protein [1]: 342 nM; apparent KD of MS2 coat protein [3]: 492 nM
CCCAGUUAUUGAGGAUAUCGUACAUGAGGAUCACCCAUGUAAUAAAUGAGGAUUUCGGGUGUCUACGAGAAGGCAAGGAUAGGC [Ostracism 21 - Jieux - Exclusion NG 2] (Eterna round: R96, puzzle: Exclusion NG 2)	61.3	49.6	apparent KD of MS2 coat protein [4]: 37.4 nM
AUAAAGUGAGGAUAUCCAAUAUAUGACAUGAGGAUCACCCAUGUUUCCACUCGUACCUCCGGAGAAGGCACAAAAU [Ex5 #61] (Eterna round: R97, puzzle: Exclusion 5)	24.5	30.5	
CCUGCACAUGAGGAUCACCCAUGUCAGGAUAUCUCGCCGUGAAGAGCAACACGGUAUUAGAGAAGGGACACGGG [Tixe] (puzzle: Exclusion 1)			apparent KD of MS2 coat protein [1]: 20.7 nM
GUUAGCGUAGGAUAUUAGUACAUGAACAUGAGGAUCACCCAUGUGAGGUGGGUCUUAGAUUAAGAAGGGCGAAGAA [EX5 #31] (Eterna round: R97, puzzle: Exclusion 5)	387	447	
UAUUCACAAGCGAGAUCCCACAUGAGGAUCACCCAUGUGCUCGUCUUAUAAGGUACUGUGACGAAAGUCACGGUACC [Sensor 3, v1 - 91 v25] (Eterna round: R97, puzzle: Sensor, turn-off variant 1)	19.9	20	
CGUUUGCAUUUUGCUCGUCACAUGAGGAUCACCCAUGUUAUGCUACAGUACGCUAGGAUCGGCGUCUGAGGGCUUUA [Eternabot (Original) Solution 1] (Eterna round: R97, puzzle: Sensor, turn-off variant 1)	25.2	27.7	
CGUGGACUAGGAUAUUUACGAGGCUACAUGAGGAUCACCCAUGUGUUCUCGAGUACCAUGAAAGAAGGAGUAGCGA [Betiatte] (puzzle: Exclusion 5)			apparent KD of MS2 coat protein [1]: 12 nM
CCGGCAUGAGGAUAUCCAUCUGGAUCAGACUAGAUCCUGAUGGAGAAGGCACAUGAGGAUCACCCAUGUUACGG [Eli 4x 4.38] (Eterna round: R97, puzzle: Exclusion 4)	51.2	173	
UGUAAGCUAGGAUAUGCUUUGGGAAAGCAUUCCUUCGAUAAACUUGAGGAUCACCCAAGUAGAAGGAGCUUACC [salish99_ex2_r4_008] (Eterna round: R97, puzzle: Exclusion 2)	12.7	10.9	
AUUUUGUGAGGAUAUUAGUUGUAGAAAAUUGUUAGUAUAGCUGAGAAGGCACAUGAGGAUCACCCAUGUAAAUC [JR_Ex4_Sub042] (Eterna round: R97, puzzle: Exclusion 4)	91	19	
AAUCCACAUGAGGAUCACCCAUGUCAGGAUAUGGUGACGCGGGUUUCGGUGCGUGUUGCCAGAAGGGACGGCUG (puzzle: Exclusion 1)			apparent KD of MS2 coat protein [1]: 23.8 nM
GCGGUACAUGAGGAUCACCCAUGUCAGGAUAUCCGCUGUUUGUUGAUAAGCAGGCGGUGGAGAAGGGACUUCGC [-26.7, -26 kcal, 23% A] (Eterna round: R97, puzzle: Exclusion 1)	39.7	33.8	
